Results as given in the supplement of paper PMC10724198.
± gives the standard deviation of the averaged measurements.

The sequences below were run on Saccharomyces cerevisiae (assay: protein stability index of tFT-peptide fusion (C-terminal peptide) (PSI (0-1 scale)); higher = more stable (slower turnover)). Conditions: genetic background: das1 deletion; temperature: 30 C.
Procedure: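 MPS profiling in S. cerevisiae of the yeast C-terminome library: the last 12 aa of each annotated ORF are fused to the C-terminus of a sfGFP-mCherry timer, after a GGGS linker. Cells are FACS-sorted into 8 mCherry/sfGFP bins and deep-sequenced. PSI runs from 0 (unstable) to 1 (stable); wild type and das1Δ backgrounds, two technical replicates each.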

Row | Sequence | protein stability index
1 | SLDGDTYFIIRS [YDL158C C-terminal 12 aa] | 0.713 ± 0.024
2 | SLRIEAIKKGFV [SPS1 C-terminal 12 aa] | 0.727 ± 0.048
3 | SMDEEFKNMDCI [SIR3 C-terminal 12 aa] | 0.706 ± 0.0084
4 | SNKKLKSQWLIK [EMC1 C-terminal 12 aa] | 0.722 ± 0.017
5 | SNNPKLHHAKEA [MEP3 C-terminal 12 aa] | 0.696 ± 0.041
6 | SQAGLMSNEEVL [CCC2 C-terminal 12 aa] | 0.69664 ± 0.00011
7 | SQRPAKGVPEGF [VPS72 C-terminal 12 aa] | 0.69 ± 0.024
8 | SRFDYLTRKNAL [CBK1 C-terminal 12 aa] | 0.6716 ± 0.0016
9 | SRFEVACEQKAA [BSC2 C-terminal 12 aa] | 0.579 ± 0.019
10 | SRFRTNRLKGDQ [YNL042W-B C-terminal 12 aa] | 0.699 ± 0.027
11 | SRLKKEFEAAAL [IDP2 C-terminal 12 aa] | 0.6762 ± 0.0031
12 | SSGADNSASSNQ [PAM16 C-terminal 12 aa] | 0.684 ± 0.014
13 | SSSLSPSLSSWP [YJL020W-A C-terminal 12 aa] | 0.739 ± 0.051
14 | SSTGTPEHDQDT [EUC1 C-terminal 12 aa] | 0.69 ± 0.0083
15 | STATGKLKKRKM [RAD2 C-terminal 12 aa] | 0.718 ± 0.023
16 | STFSIVSSISLW [YPL044C C-terminal 12 aa] | 0.6894 ± 0.0026
17 | STPIAIGIMNIL [YDR271C C-terminal 12 aa] | 0.674 ± 0.018
18 | STSSLKRQRTDF [REX2 C-terminal 12 aa] | 0.718 ± 0.011
19 | STTADSTTNSAN [YLR146W-A C-terminal 12 aa] | 0.696 ± 0.014
20 | SVFLLNITYLLD [YOR314W C-terminal 12 aa] | 0.236 ± 0.0099
21 | SVTFFIQDILCL [YPL073C C-terminal 12 aa] | 0.389 ± 0.019

Row | Sequence | protein stability index
22 | SWINLDFNDGDE [MDM12 C-terminal 12 aa] | 0.6957 ± 0.004
23 | SYRVMQPNEFES [YGL214W C-terminal 12 aa] | 0.7 ± 0.016
24 | TAAQILKKQNRL [YDR541C C-terminal 12 aa] | 0.6454 ± 0.0021
25 | TALLENDANLIS [ERV15 C-terminal 12 aa] | 0.703 ± 0.019
26 | TALNSGRSRDVK [YJL027C C-terminal 12 aa] | 0.6821 ± 0.0027
27 | TCLTGEVIFPPR [NPC2 C-terminal 12 aa] | 0.7115 ± 0.0058
28 | TDGLNVWKTISV [RRB1 C-terminal 12 aa] | 0.661 ± 0.023
29 | TEDKNKALESAQ [VPS60 C-terminal 12 aa] | 0.702 ± 0.013
30 | TEDQFKENGVKK [ICL1 C-terminal 12 aa] | 0.703 ± 0.033
31 | TEEMKDAEEMKQ [RIX7 C-terminal 12 aa] | 0.685 ± 0.014
32 | TEFMNFWINVLP [RSC4 C-terminal 12 aa] | 0.725 ± 0.028
33 | TFEELWNGVEGI [ARH1 C-terminal 12 aa] | 0.722 ± 0.016
34 | TFGKCILDGFKA [SCM4 C-terminal 12 aa] | 0.709 ± 0.017
35 | TGQVGVPTISQV [NCE102 C-terminal 12 aa] | 0.687 ± 0.021
36 | THENIHQKFVQF [SFB3 C-terminal 12 aa] | 0.7294 ± 0.004
37 | THTHHNPNPTLF [YNL338W C-terminal 12 aa] | 0.707 ± 0.011
38 | TILFMLVLYTIV [YDL241W C-terminal 12 aa] | 0.222 ± 0.017
39 | TKVIQVQKKCIQ [IRC14 C-terminal 12 aa] | 0.688 ± 0.026
40 | TKVYFLGRDSSV [NDE2 C-terminal 12 aa] | 0.688 ± 0.013
41 | TLIDYFIENDGL [LYS5 C-terminal 12 aa] | 0.7227 ± 0.0034
42 | TLRGLSNAFPTD [MME1 C-terminal 12 aa] | 0.7057 ± 0.0043

Row | Sequence | protein stability index
43 | TPKYVESDEDDQ [TOF2 C-terminal 12 aa] | 0.654 ± 0.041
44 | TQSPADFSSQNH [NHX1 C-terminal 12 aa] | 0.74 ± 0.021
45 | TRGEATLRANYQ [YOR008W-B C-terminal 12 aa] | 0.6862 ± 0.003
46 | TRGPRRKLPTRV [BSP1 C-terminal 12 aa] | 0.6863 ± 0.0066
47 | TSIEEDLASKSE [RTA1 C-terminal 12 aa] | 0.689 ± 0.02
48 | TSSQYEGVALGM [EAF3 C-terminal 12 aa] | 0.695 ± 0.013
49 | TTHGLKQKLQHA [RTN2 C-terminal 12 aa] | 0.701 ± 0.011
50 | TTRYAKEMNIIS [HIR2 C-terminal 12 aa] | 0.694 ± 0.031
51 | TVSSVESVLAHL [AHP1 C-terminal 12 aa] | 0.728 ± 0.016
52 | VACDSDSSSTIE [YEN1 C-terminal 12 aa] | 0.679 ± 0.016
53 | VATYLREHEYDQ [AAP1 C-terminal 12 aa] | 0.6847 ± 0.0021
54 | VDFIKEFAEKNA [SER1 C-terminal 12 aa] | 0.708 ± 0.011
55 | VDIRSFRQDMDL [YJR056C C-terminal 12 aa] | 0.703 ± 0.021
56 | VDNFISVLKQGQ [LOS1 C-terminal 12 aa] | 0.7081 ± 0.0044
57 | VDVLKLNDPTRH [BCY1 C-terminal 12 aa] | 0.716 ± 0.031
58 | VEAVKRVLTKKF [IMG2 C-terminal 12 aa] | 0.6883 ± 0.0047
59 | VFDENMYSKYSS [BRO1 C-terminal 12 aa] | 0.712 ± 0.012
60 | VFLVISQHSLHS [YDR545C-A C-terminal 12 aa] | 0.6541 ± 0.0036
61 | VGADSYAEEEEF [TUB1 C-terminal 12 aa] | 0.687 ± 0.032
62 | VGDIVWKIRNIN [TTI1 C-terminal 12 aa] | 0.689 ± 0.026
63 | VGDLEAGLRRKK [IMG1 C-terminal 12 aa] | 0.712 ± 0.0076

Row | Sequence | protein stability index
64 | VHCGCRGCASTD [BUD31 C-terminal 12 aa] | 0.669 ± 0.0018
65 | VIDLDNSVAREV [MDL1 C-terminal 12 aa] | 0.7044 ± 0.0069
66 | VILMVDFTLVGP [YDR262W C-terminal 12 aa] | 0.429 ± 0.023
67 | VKKLLEIRSKSS [GTT2 C-terminal 12 aa] | 0.681 ± 0.0073
68 | VKKLVTDMLAKI [CFT2 C-terminal 12 aa] | 0.6957 ± 0.00094
69 | VLSFNPKVWLLV [YAR068W C-terminal 12 aa] | 0.562 ± 0.0081
70 | VNGELKYVKPED [AFT1 C-terminal 12 aa] | 0.6945 ± 0.0046
71 | VPGNPGVVFQNI [CDC60 C-terminal 12 aa] | 0.708 ± 0.018
72 | VQSTDIAAMQKL [EFB1 C-terminal 12 aa] | 0.721 ± 0.014
73 | VRKLSFHVYEDE [ACM1 C-terminal 12 aa] | 0.6908 ± 0.001
74 | VSKMDCDPLTVA [NIF3 C-terminal 12 aa] | 0.678 ± 0.027
75 | VTFLVFANLRLW [YBR223W-A C-terminal 12 aa] | 0.566 ± 0.013
76 | VVCFVSYQKLSS [OPI9 C-terminal 12 aa] | 0.635 ± 0.011
77 | VVEALRDAVGDV [NBP35 C-terminal 12 aa] | 0.706 ± 0.014
78 | VVVVPSVVETRK [SSO2 C-terminal 12 aa] | 0.681 ± 0.031
79 | VWADILNKLGKD [ADK1 C-terminal 12 aa] | 0.704 ± 0.013
80 | VYALSIKRSKLT [EPT1 C-terminal 12 aa] | 0.6803 ± 0.0053
81 | VYELVDAEALFS [YDR131C C-terminal 12 aa] | 0.745 ± 0.02
82 | WAVGGVELTTDI [GCN1 C-terminal 12 aa] | 0.76 ± 0.021
